# Laboratory results: patent US20180319878A1 (NANYANG TECHNOLOGICAL UNIVERSITY, published 2018)
# Molecular target: T1, recombinant human cANGPTL4 (C terminal region of angiopoietin-like 4) (human, UniProt Q9BY76 186-406, limits assumed)
# T1 construct: domain: c terminal region; Immobilized on the chip in SPR; added at 6 µg/ml to HMVECs in cell assays; also called rh-cANGPTL4; rhcANGPTL4
# T1 sequence (looked up): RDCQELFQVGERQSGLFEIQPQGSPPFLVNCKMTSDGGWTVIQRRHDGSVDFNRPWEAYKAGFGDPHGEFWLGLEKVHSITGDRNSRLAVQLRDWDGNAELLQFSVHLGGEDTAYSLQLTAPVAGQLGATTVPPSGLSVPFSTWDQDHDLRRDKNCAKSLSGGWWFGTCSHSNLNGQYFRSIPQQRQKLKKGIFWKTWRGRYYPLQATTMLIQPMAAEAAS
# Experiment: SPR (BIAcore 2000), immobilized cANGPTL4, global fitting
# Method: Six concentrations (0.16, 0.32, 0.63, 1.25, 2.50 and 5.0 μM) of recombinant integrin β1, first extracellular domain of VE-cadherin (ECD1), extracellular repeat 1 domain of VE-cadherin (EC1), occludin or JAM-A were used.
# Global fitting of the SPR data was performed as previously described to determine the KD. Preinjection or preincubation with the indicated antibodies or preimmune IgG was performed to determine specific interactions. Each sensorgram was corrected by subtracting a sensorgram obtained from a reference flow cell with no immobilized protein. […] Values are mean±S.D. (n=3)
binder,measurement,value
"claudin-5 (SPR analyte) (other, UniProt O00501 1-218, looked up) MGSAALEILGLVLCLVGWGGLILACGLPMWQVTAFLDHNIVTAQTTWKGLWMSCVVQSTGHMQCKVYDSVLALSTEVQAARALTVSAVLLAFVALFVTLAGAQCTTCVAPGPAKARVALTGGVLYLFCGLLALVPLCWFANIVVREFYDPSVPVSQKYELGAALYIGWAATALLMVGGCLLCCGAWVCTGRPDLSFPVKYSAPRRPTATGDYDKKNYV",Kd,58.7 nM
